Measurements taken from the Human Domainome abundance scans (Beltran et al. 2025).
± gives the uncertainty stated by the source.

B1: Transcription factor SOX-4, residues 60 to 127; numbered along this chain, Q06945 (parent)
chain: KRPMNAFMVWSQIERRKIMEQSPDMHNAEISKRLGKRWKLLKDSDKIPFIREAERLRLKHMADYPDYK

Variants of: B1
Experiment: abundance fitness (aPCA) (normalised: wild type 0, dead -1); higher = more abundant; growth selection in yeast, the domain comes from the species named
Conditions: Homo sapiens

K17A and K17H are within error of each other in abundance fitness: -0.765 ± 0.21 for the first, -0.426 ± 0.14 for the second.

First: K17Q
Second: K17S
The abundance fitness of the first is higher: -0.092 ± 0.078 for the first, -0.439 ± 0.075 for the second.

K17M and K17D are within error of each other in abundance fitness: -0.401 ± 0.13 for the first, -0.459 ± 0.12 for the second.

Going from K17N to R15P, the abundance fitness falls from -0.262 ± 0.17 to -0.686 ± 0.14.

Compared with R15L, R15N is lower in abundance fitness: -0.512 ± 0.056 for the first, -0.738 ± 0.096 for the second.

Going from R15D to R15A, the abundance fitness rises from -0.752 ± 0.092 to -0.38 ± 0.061.

L41S and L41E are within error of each other in abundance fitness: -0.779 ± 0.1 for the first, -0.849 ± 0.16 for the second.

L41A and L34W are within error of each other in abundance fitness: -0.875 ± 0.12 for the first, -0.713 ± 0.11 for the second.

L34F and L34C are within error of each other in abundance fitness: -0.724 ± 0.18 for the first, -0.825 ± 0.18 for the second.

L34H and L34S are within error of each other in abundance fitness: -0.881 ± 0.12 for the first, -0.621 ± 0.15 for the second.

L34I and Y64I are within error of each other in abundance fitness: -0.083 ± 0.17 for the first, -0.109 ± 0.18 for the second.

Y64M and Y64P are within error of each other in abundance fitness: -0.061 ± 0.078 for the first, -0.009 ± 0.061 for the second.

Y64V and R2Y are within error of each other in abundance fitness: 0.02 ± 0.063 for the first, -0.374 ± 0.41 for the second.

Going from R2F to R2E, the abundance fitness falls from -0.113 ± 0.12 to -0.362 ± 0.12.

Compared with R2T, R2V is higher in abundance fitness: -0.457 ± 0.2 for the first, -0.08 ± 0.07 for the second.

First: R2L
Second: E20Y
The abundance fitness of the first is higher: -0.275 ± 0.067 for the first, -0.88 ± 0.33 for the second.

E20Q and E20K are within error of each other in abundance fitness: -0.142 ± 0.33 for the first, -0.439 ± 0.16 for the second.

Compared with E20I, M8D is higher in abundance fitness: -0.227 ± 0.14 for the first, 0.088 ± 0.049 for the second.

First: M8H
Second: M8K
The abundance fitness of the first is higher: 0.042 ± 0.062 for the first, -0.205 ± 0.054 for the second.

L40H and L40V are within error of each other in abundance fitness: -0.153 ± 0.14 for the first, -0.329 ± 0.046 for the second.

L40D and L40Q are within error of each other in abundance fitness: 0.094 ± 0.058 for the first, 0.011 ± 0.071 for the second.

L40G and L40T are within error of each other in abundance fitness: -0.08 ± 0.041 for the first, 0.019 ± 0.065 for the second.

Compared with D45R, D45M is higher in abundance fitness: -0.74 ± 0.094 for the first, -0.395 ± 0.14 for the second.

D45K and D45Q are within error of each other in abundance fitness: -0.486 ± 0.33 for the first, -0.097 ± 0.16 for the second.

D45F and D45A are within error of each other in abundance fitness: -0.39 ± 0.48 for the first, -0.239 ± 0.071 for the second.

D66Y and D66T are within error of each other in abundance fitness: -0.537 ± 0.26 for the first, -0.216 ± 0.069 for the second.

D66Q and I47S are within error of each other in abundance fitness: -0.254 ± 0.083 for the first, -0.319 ± 0.041 for the second.

I47A and I47L are within error of each other in abundance fitness: 0.031 ± 0.063 for the first, 0.078 ± 0.038 for the second.

I47M and I47Q are within error of each other in abundance fitness: -0.047 ± 0.05 for the first, -0.006 ± 0.074 for the second.

Compared with I47H, I47K is higher in abundance fitness: -0.314 ± 0.051 for the first, -0.112 ± 0.074 for the second.

Compared with I47C, A62L is higher in abundance fitness: -0.546 ± 0.062 for the first, -0.175 ± 0.042 for the second.

A62S and A62G are within error of each other in abundance fitness: -0.021 ± 0.037 for the first, -0.017 ± 0.038 for the second.

A62K and A62Y are within error of each other in abundance fitness: 0.008 ± 0.063 for the first, -0.104 ± 0.052 for the second.

First: A62I
Second: H26N
The abundance fitness of the first is lower: -0.163 ± 0.064 for the first, 0.289 ± 0.25 for the second.

Compared with H26Y, H26Q is higher in abundance fitness: -0.652 ± 0.39 for the first, 0.111 ± 0.1 for the second.

H26P and H26A are within error of each other in abundance fitness: 0.134 ± 0.092 for the first, 0.113 ± 0.07 for the second.

Compared with H26K, S11N is lower in abundance fitness: 0.138 ± 0.15 for the first, -0.762 ± 0.099 for the second.

First: S11P
Second: S11F
The abundance fitness of the first is lower: -0.99 ± 0.19 for the first, -0.217 ± 0.044 for the second.

Compared with S11I, S11Q is higher in abundance fitness: -0.737 ± 0.079 for the first, -0.323 ± 0.092 for the second.

R33Y and D24S are within error of each other in abundance fitness: -0.218 ± 0.16 for the first, -0.15 ± 0.04 for the second.

Compared with D24G, D24I is lower in abundance fitness: -0.123 ± 0.042 for the first, -0.632 ± 0.1 for the second.

First: K59T
Second: K59W
The abundance fitness of the first is higher: -0.162 ± 0.058 for the first, -0.369 ± 0.056 for the second.

K59A and K59S are within error of each other in abundance fitness: -0.04 ± 0.064 for the first, -0.024 ± 0.039 for the second.

Going from K59R to K59Y, the abundance fitness falls from -0.126 ± 0.035 to -0.277 ± 0.053.

P3N and P3S are within error of each other in abundance fitness: -0.108 ± 0.049 for the first, -0.122 ± 0.041 for the second.

P3L and P3G are within error of each other in abundance fitness: -0.216 ± 0.053 for the first, -0.166 ± 0.036 for the second.

P3A and P3K are within error of each other in abundance fitness: -0.114 ± 0.053 for the first, -0.103 ± 0.07 for the second.

Compared with R16D, R16Y is lower in abundance fitness: -0.223 ± 0.054 for the first, -0.416 ± 0.06 for the second.

Compared with R16C, R16Q is higher in abundance fitness: -0.206 ± 0.057 for the first, -0.023 ± 0.067 for the second.

Compared with R16M, R16F is lower in abundance fitness: -0.212 ± 0.075 for the first, -0.368 ± 0.055 for the second.

Compared with R16L, R37E is higher in abundance fitness: -0.154 ± 0.04 for the first, 0.043 ± 0.07 for the second.

R37N and R37D are within error of each other in abundance fitness: 0.101 ± 0.29 for the first, -0.035 ± 0.091 for the second.

R37L and I50T are within error of each other in abundance fitness: -0.364 ± 0.097 for the first, -0.337 ± 0.086 for the second.

I50Y and I50L are within error of each other in abundance fitness: 0.041 ± 0.28 for the first, -0.194 ± 0.082 for the second.

I50N and M61C are within error of each other in abundance fitness: -0.284 ± 0.19 for the first, -0.071 ± 0.083 for the second.

M61S and M61Y are within error of each other in abundance fitness: 0.001 ± 0.071 for the first, -0.319 ± 0.25 for the second.

Going from M61P to M61K, the abundance fitness rises from -0.202 ± 0.087 to 0.003 ± 0.089.

E29T and E29Q are within error of each other in abundance fitness: -0.348 ± 0.12 for the first, -0.367 ± 0.068 for the second.

Compared with E29G, E52Q is higher in abundance fitness: -0.628 ± 0.089 for the first, -0.291 ± 0.088 for the second.

E52C and E52K are within error of each other in abundance fitness: -0.353 ± 0.11 for the first, -0.515 ± 0.12 for the second.

First: E52F
Second: W38R
The abundance fitness of the first is higher: -0.215 ± 0.11 for the first, -1.16 ± 0.12 for the second.

W38M and W38A are within error of each other in abundance fitness: -0.985 ± 0.11 for the first, -1.01 ± 0.1 for the second.

W38D and W38E are within error of each other in abundance fitness: -0.67 ± 0.091 for the first, -0.799 ± 0.1 for the second.

Going from W38P to I30V, the abundance fitness rises from -0.739 ± 0.13 to 0.022 ± 0.037.

Going from I30T to I30K, the abundance fitness falls from -0.661 ± 0.12 to -0.999 ± 0.12.

I30F and I30G are within error of each other in abundance fitness: -0.912 ± 0.11 for the first, -0.769 ± 0.055 for the second.

I30E and I30W are within error of each other in abundance fitness: -0.8 ± 0.092 for the first, -0.875 ± 0.089 for the second.

Y67G and Y67N are within error of each other in abundance fitness: 0.119 ± 0.081 for the first, 0.034 ± 0.15 for the second.

Y67M and Y67C are within error of each other in abundance fitness: -0.069 ± 0.093 for the first, -0.04 ± 0.15 for the second.

Y67H and Y67V are within error of each other in abundance fitness: -0.301 ± 0.38 for the first, 0.159 ± 0.085 for the second.

First: Y67S
Second: L56P
The abundance fitness of the first is higher: 0.088 ± 0.078 for the first, -0.655 ± 0.1 for the second.

Going from L56K to L56F, the abundance fitness falls from -0.174 ± 0.15 to -0.543 ± 0.11.

L56S and L56E are within error of each other in abundance fitness: -0.282 ± 0.049 for the first, -0.201 ± 0.1 for the second.

L56Y and L56W are within error of each other in abundance fitness: -0.349 ± 0.22 for the first, -0.542 ± 0.088 for the second.

L56R and L56A are within error of each other in abundance fitness: -0.254 ± 0.054 for the first, -0.355 ± 0.073 for the second.

H60S and H60G are within error of each other in abundance fitness: 0.041 ± 0.06 for the first, 0.04 ± 0.05 for the second.

Compared with H60W, H60E is higher in abundance fitness: -0.161 ± 0.074 for the first, 0.053 ± 0.072 for the second.

First: H60P
Second: P48W
The abundance fitness of the first is higher: -0.045 ± 0.079 for the first, -0.493 ± 0.069 for the second.

Going from P48I to P48G, the abundance fitness falls from -0.089 ± 0.08 to -0.51 ± 0.042.

P48K and P23E are within error of each other in abundance fitness: -0.482 ± 0.1 for the first, -0.554 ± 0.065 for the second.

Compared with P23Y, P23A is higher in abundance fitness: -0.862 ± 0.091 for the first, -0.619 ± 0.074 for the second.

First: I13P
Second: I13L
The abundance fitness of the first is lower: -0.484 ± 0.09 for the first, -0.127 ± 0.062 for the second.

Compared with A6W, A6R is higher in abundance fitness: -0.896 ± 0.1 for the first, -0.713 ± 0.054 for the second.

A6K gave an abundance fitness of -0.791 ± 0.092.
